IC50 data for one substance are collected here from patent US20230159643A1.

The experiment addresses Sortilin SORTECD_HIS (human) (UniProt Q99523). The experiment is described as follows: HTRF: displacement of PGRN binding to His-tagged Sortilin ECD. Background: TR-FRET usually uses a lanthanide donor and a delayed reading to cut background.

Chain of Sortilin SORTECD_HIS (human) (Q99523 other isoform, or with tags, fused parts or gaps limits assumed): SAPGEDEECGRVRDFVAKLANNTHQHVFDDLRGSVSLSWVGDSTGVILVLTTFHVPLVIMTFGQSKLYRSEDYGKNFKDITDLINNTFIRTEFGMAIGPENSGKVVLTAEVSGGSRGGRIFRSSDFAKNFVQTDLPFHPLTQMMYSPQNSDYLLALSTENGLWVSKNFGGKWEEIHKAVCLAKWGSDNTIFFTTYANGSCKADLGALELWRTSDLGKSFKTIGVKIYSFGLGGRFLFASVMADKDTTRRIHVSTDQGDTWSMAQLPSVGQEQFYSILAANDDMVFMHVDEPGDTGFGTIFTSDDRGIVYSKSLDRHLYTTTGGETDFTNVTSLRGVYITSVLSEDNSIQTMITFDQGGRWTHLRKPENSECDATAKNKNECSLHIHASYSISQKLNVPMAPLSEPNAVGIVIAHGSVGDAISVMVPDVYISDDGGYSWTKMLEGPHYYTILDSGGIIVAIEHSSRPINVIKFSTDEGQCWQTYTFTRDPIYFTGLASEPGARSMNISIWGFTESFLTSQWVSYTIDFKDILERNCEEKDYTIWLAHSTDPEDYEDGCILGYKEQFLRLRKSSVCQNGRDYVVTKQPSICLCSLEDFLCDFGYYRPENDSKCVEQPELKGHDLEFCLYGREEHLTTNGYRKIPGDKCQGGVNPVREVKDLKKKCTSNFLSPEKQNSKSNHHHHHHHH

Consider IgG1-b12 (antibody), for which the IC50 – broadly, the concentration that gives 50% inhibition – is above 1 µM.
